Test results taken from patent US20180030151A1 (MOGAM INSTITUTE FOR BIOMEDICAL RESEARCH, published 2018).
Like-named read-outs stand apart in the source and are kept apart here.

Key:
[1] = molecular target: T1, recombinant human TFPI (tissue factor pathway inhibitor) (human, UniProt P10646 29-304); assay: cell-based or functional assay
[2] = molecular target: T1, recombinant human TFPI (tissue factor …); assay: SPR, Biacore T-200; TFPI immobilised on CM5 chip, IgG as analyte
Experimental: 10 mM of glycine-HCl (pH 1.5) was run at a flow rate of 30 μL/min for 30 seconds, thereby inducing the dissociation of the antibody associated with the TFPI. The affinity in terms of kinetic rate constants (Kₒₙ and Koff) and equilibrium dissociation constant

[3] = molecular target: T1, recombinant human TFPI (tissue factor …); assay: cell-based or functional assay; remark: listed apart in the source
[4] = molecular target: TFPI in FVIII-deficient plasma (sample dilution); assay: cell-based or functional assay
[5] = molecular target: T1, recombinant human TFPI (tissue factor …); assay: cell-based or functional assay; remark: listed apart in the source
[6] = molecular target: T1, recombinant human TFPI (tissue factor …); assay: cell-based or functional assay; remark: listed apart in the source
[7] = molecular target: T1, recombinant human TFPI (tissue factor …); assay: cell-based or functional assay; remark: listed apart in the source
[8] = molecular target: T1, recombinant human TFPI (tissue factor …); assay: cell-based or functional assay; remark: listed apart in the source
[9] = molecular target: T1, recombinant human TFPI (tissue factor …); assay: cell-based or functional assay; remark: listed apart in the source
[10] = molecular target: T1, recombinant human TFPI (tissue factor …); assay: cell-based or functional assay; remark: listed apart in the source
[11] = molecular target: T1, recombinant human TFPI (tissue factor …); assay: cell-based or functional assay; remark: listed apart in the source
[12] = molecular target: T1, recombinant human TFPI (tissue factor …); assay: cell-based or functional assay; remark: listed apart in the source
[13] = molecular target: T1, recombinant human TFPI (tissue factor …); assay: cell-based or functional assay; remark: listed apart in the source
[14] = molecular target: T1, recombinant human TFPI (tissue factor …); assay: cell-based or functional assay; remark: listed apart in the source

B1: clone 308 (antibody, V domains shown)
VH: EVQLVESGGGLVKPGGSLRLSCAASGFTFSSYAMNWVRQAPGKGLEWVSTITTGGSYTYYADSVKGRFTISRDNAKNSLYLQMNSLRAEDTAVYYCARQDGNFLMDYWGQGTLVTVSS
VL: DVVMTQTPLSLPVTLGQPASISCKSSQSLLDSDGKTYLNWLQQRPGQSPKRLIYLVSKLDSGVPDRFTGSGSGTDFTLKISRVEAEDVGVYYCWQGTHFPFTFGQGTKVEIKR
notes: Humanized form of T417, IgG
FXa assay % of FXa alone, 0.625 nM Ab, 10 nM TFPI [1]: 5%
FXa assay % of FXa alone, 2.5 nM Ab, 10 nM TFPI [1]: 8%
FXa assay OD, 0.625 nM Ab, 10 nM TFPI [1]: 0.049 OD
FXa assay OD, 2.5 nM Ab, 10 nM TFPI [1]: 0.078 OD
FXa assay OD, 10 nM Ab, 10 nM TFPI [1]: 0.519 OD
FXa assay OD, 40 nM Ab, 10 nM TFPI [1]: 0.718 OD
Kd [2]: 0.05 nM
TFPI inhibitory activity, FXa activity assay, Ab 10 nM [3]: ~58.2%
TFPI inhibitory activity, FXa activity assay, Ab 40 nM [3]: ~85.1%
TFPI inhibitory activity, TF/FVIIa/FXa complex assay, Ab 50 nM [3]: ~54.2%
TFPI inhibitory activity, TF/FVIIa/FXa complex assay, Ab 100 nM [3]: ~94.3%
ETP vs negative control, thrombin generation assay, Ab 2.5 nM [4]: 122%
thrombin peak vs blank, thrombin generation assay, Ab 2.5 nM [4]: 162%
TF/FVIIa/FXa assay % of 0 nM TFPI, 12.5 nM Ab, 50 nM TFPI [5]: 17.9%
TF/FVIIa/FXa assay % of 0 nM TFPI, 50 nM Ab, 50 nM TFPI [5]: 66.5%
TF/FVIIa/FXa assay % of 0 nM TFPI, 100 nM Ab, 50 nM TFPI [5]: 104%
TF/FVIIa/FXa assay OD, 12.5 nM Ab, 50 nM TFPI [5]: 0.143 OD
TF/FVIIa/FXa assay OD, 25 nM Ab, 50 nM TFPI [5]: 0.248 OD
TF/FVIIa/FXa assay OD, 50 nM Ab, 50 nM TFPI [5]: 0.533 OD
TF/FVIIa/FXa assay OD, 100 nM Ab, 50 nM TFPI [5]: 0.833 OD

B2: clone 308-4 (antibody, V domains shown)
VH: EVQLVESGGGLVKPGGSLRLSCAASGFTFSSYAMNWVRQAPGKGLEWVSTITTGGSYTYYADSVEGRFTISRDNAKNSLYLQMNSLRAEDTAVYYCARQDGNFLMDYWGQGTLVTVSS
VL: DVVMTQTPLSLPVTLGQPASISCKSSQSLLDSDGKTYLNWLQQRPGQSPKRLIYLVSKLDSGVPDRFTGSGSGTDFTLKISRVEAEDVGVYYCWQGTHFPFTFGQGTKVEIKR
FXa assay % of FXa alone, 2.5 nM Ab, 10 nM TFPI [6]: 8.3%
FXa assay % of FXa alone, 5 nM Ab, 10 nM TFPI [6]: 59.8%
FXa assay % of FXa alone, 10 nM Ab, 10 nM TFPI [6]: 73.9%
FXa assay % of FXa alone, 20 nM Ab, 10 nM TFPI [6]: 74.1%
FXa assay OD, 2.5 nM Ab, 10 nM TFPI [6]: 0.06
FXa assay OD, 5 nM Ab, 10 nM TFPI [6]: 0.43
FXa assay OD, 10 nM Ab, 10 nM TFPI [6]: 0.531
FXa assay % of FXa alone, 2.5 nM Ab, 10 nM TFPI [7]: 8.6%
FXa assay % of FXa alone, 5 nM Ab, 10 nM TFPI [7]: 30.7%
FXa assay % of FXa alone, 10 nM Ab, 10 nM TFPI [7]: 60.4%
FXa assay % of FXa alone, 20 nM Ab, 10 nM TFPI [7]: 71.6%
FXa assay OD, 2.5 nM Ab, 10 nM TFPI [7]: 0.069
FXa assay OD, 5 nM Ab, 10 nM TFPI [7]: 0.247
FXa assay OD, 10 nM Ab, 10 nM TFPI [7]: 0.487
FXa assay OD, 20 nM Ab, 10 nM TFPI [7]: 0.578
A405, TF/FVIIa/FX complex assay, Ab 1.56 nM [8]: 0.154
A405, TF/FVIIa/FX complex assay, Ab 3.13 nM [8]: 0.164
A405, TF/FVIIa/FX complex assay, Ab 6.25 nM [8]: 0.185
A405, TF/FVIIa/FX complex assay, Ab 12.5 nM [8]: 0.222
A405, TF/FVIIa/FX complex assay, Ab 25 nM [8]: 0.716
A405, TF/FVIIa/FX complex assay, Ab 50 nM [8]: 0.909
A405, TF/FVIIa/FX complex assay, Ab 100 nM [8]: 0.926
% of Normalized, TF/FVIIa/FX complex assay, Ab 1.56 nM [9]: 16.1%
% of Normalized, TF/FVIIa/FX complex assay, Ab 3.13 nM [9]: 17.2%
% of Normalized, TF/FVIIa/FX complex assay, Ab 6.25 nM [9]: 19.4%
% of Normalized, TF/FVIIa/FX complex assay, Ab 12.5 nM [9]: 23.2%
% of Normalized, TF/FVIIa/FX complex assay, Ab 25 nM [9]: 75%
% of Normalized, TF/FVIIa/FX complex assay, Ab 50 nM [9]: 95.2%
% of Normalized, TF/FVIIa/FX complex assay, Ab 100 nM [9]: 97%
FXa assay % of FXa alone, 0.625 nM Ab, 10 nM TFPI [1]: 4%
FXa assay % of FXa alone, 2.5 nM Ab, 10 nM TFPI [1]: 8%
FXa assay OD, 0.625 nM Ab, 10 nM TFPI [1]: 0.042 OD
FXa assay OD, 2.5 nM Ab, 10 nM TFPI [1]: 0.083 OD
FXa assay OD, 10 nM Ab, 10 nM TFPI [1]: 0.765 OD
FXa assay OD, 40 nM Ab, 10 nM TFPI [1]: 0.804 OD
Kd [2]: 0.024 nM
FXa assay % of FXa alone, 2.5 nM Ab, 10 nM TFPI [10]: 9.9%
FXa assay % of FXa alone, 5 nM Ab, 10 nM TFPI [10]: 56.8%
FXa assay % of FXa alone, 10 nM Ab, 10 nM TFPI [10]: 76.8%
FXa assay % of FXa alone, 20 nM Ab, 10 nM TFPI [10]: 77.3%
FXa assay OD, 2.5 nM Ab, 10 nM TFPI [10]: 0.0765
FXa assay OD, 5 nM Ab, 10 nM TFPI [10]: 0.438
FXa assay OD, 10 nM Ab, 10 nM TFPI [10]: 0.591
% of Normalized, TF/FVIIa/FX complex assay, Ab 1.56 nM [11]: 14.7%
% of Normalized, TF/FVIIa/FX complex assay, Ab 3.13 nM [11]: 16.8%
% of Normalized, TF/FVIIa/FX complex assay, Ab 6.25 nM [11]: 19.2%
% of Normalized, TF/FVIIa/FX complex assay, Ab 12.5 nM [11]: 24.2%
% of Normalized, TF/FVIIa/FX complex assay, Ab 25 nM [11]: 72.3%
% of Normalized, TF/FVIIa/FX complex assay, Ab 50 nM [11]: 101%
% of Normalized, TF/FVIIa/FX complex assay, Ab 100 nM [11]: 102%
FXa assay % of FXa alone, 2.5 nM Ab, 10 nM TFPI [12]: 7%
FXa assay % of FXa alone, 5 nM Ab, 10 nM TFPI [12]: 20.8%
FXa assay % of FXa alone, 10 nM Ab, 10 nM TFPI [12]: 49.3%
FXa assay % of FXa alone, 20 nM Ab, 10 nM TFPI [12]: 68.4%
FXa assay OD, 2.5 nM Ab, 10 nM TFPI [12]: 0.057
FXa assay OD, 5 nM Ab, 10 nM TFPI [12]: 0.169
FXa assay OD, 10 nM Ab, 10 nM TFPI [12]: 0.401
FXa assay OD, 20 nM Ab, 10 nM TFPI [12]: 0.555
TFPI inhibitory activity, FXa activity assay, Ab 10 nM [3]: 78%
TFPI inhibitory activity, FXa activity assay, Ab 40 nM [3]: 82%
TFPI inhibitory activity, TF/FVIIa/FXa complex assay, Ab 50 nM [3]: 100%
TFPI inhibitory activity, TF/FVIIa/FXa complex assay, Ab 100 nM [3]: 100%
FXa assay % of FXa alone, 2.5 nM Ab, 10 nM TFPI [13]: 8.5%
FXa assay % of FXa alone, 5 nM Ab, 10 nM TFPI [13]: 26.5%
FXa assay % of FXa alone, 10 nM Ab, 10 nM TFPI [13]: 57.9%
FXa assay % of FXa alone, 20 nM Ab, 10 nM TFPI [13]: 67%
FXa assay OD, 2.5 nM Ab, 10 nM TFPI [13]: 0.041
FXa assay OD, 5 nM Ab, 10 nM TFPI [13]: 0.129
FXa assay OD, 10 nM Ab, 10 nM TFPI [13]: 0.28
FXa assay OD, 20 nM Ab, 10 nM TFPI [13]: 0.325
TF/FVIIa/FXa assay % of 0 nM TFPI, 12.5 nM Ab, 50 nM TFPI [5]: 20.7%
TF/FVIIa/FXa assay % of 0 nM TFPI, 50 nM Ab, 50 nM TFPI [5]: 111%
TF/FVIIa/FXa assay % of 0 nM TFPI, 100 nM Ab, 50 nM TFPI [5]: 111%
TF/FVIIa/FXa assay OD, 12.5 nM Ab, 50 nM TFPI [5]: 0.166 OD
TF/FVIIa/FXa assay OD, 25 nM Ab, 50 nM TFPI [5]: 0.548 OD
TF/FVIIa/FXa assay OD, 50 nM Ab, 50 nM TFPI [5]: 0.886 OD
TF/FVIIa/FXa assay OD, 100 nM Ab, 50 nM TFPI [5]: 0.89 OD
A405, TF/FVIIa/FX complex assay, Ab 1.56 nM [14]: 0.135
A405, TF/FVIIa/FX complex assay, Ab 3.13 nM [14]: 0.155
A405, TF/FVIIa/FX complex assay, Ab 6.25 nM [14]: 0.177
A405, TF/FVIIa/FX complex assay, Ab 12.5 nM [14]: 0.223
A405, TF/FVIIa/FX complex assay, Ab 25 nM [14]: 0.664
A405, TF/FVIIa/FX complex assay, Ab 50 nM [14]: 0.926
A405, TF/FVIIa/FX complex assay, Ab 100 nM [14]: 0.938

B3: clone 308-2 (antibody, V domains shown)
VH: EVQLVESGGGLVKPGGSLRLSCAASGFTFSSYAMNWVRQAPGKGLEWVSTITTGGSYTYYADSVQGRFTISRDNAKNSLYLQMNSLRAEDTAVYYCARQDGNFLMDYWGQGTLVTVSS
VL: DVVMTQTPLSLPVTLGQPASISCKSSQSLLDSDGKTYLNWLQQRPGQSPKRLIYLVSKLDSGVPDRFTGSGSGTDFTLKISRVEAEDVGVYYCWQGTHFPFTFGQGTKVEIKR
FXa assay % of FXa alone, 0.625 nM Ab, 10 nM TFPI [1]: 5%
FXa assay % of FXa alone, 2.5 nM Ab, 10 nM TFPI [1]: 8%
FXa assay OD, 0.625 nM Ab, 10 nM TFPI [1]: 0.053 OD
FXa assay OD, 2.5 nM Ab, 10 nM TFPI [1]: 0.078 OD
FXa assay OD, 10 nM Ab, 10 nM TFPI [1]: 0.71 OD
FXa assay OD, 40 nM Ab, 10 nM TFPI [1]: 0.832 OD
Kd [2]: 0.033 nM
TFPI inhibitory activity, FXa activity assay, Ab 10 nM [3]: 72%
TFPI inhibitory activity, FXa activity assay, Ab 40 nM [3]: 85%
TFPI inhibitory activity, TF/FVIIa/FXa complex assay, Ab 50 nM [3]: 100%
TFPI inhibitory activity, TF/FVIIa/FXa complex assay, Ab 100 nM [3]: 100%
TF/FVIIa/FXa assay % of 0 nM TFPI, 12.5 nM Ab, 50 nM TFPI [5]: 18.5%
TF/FVIIa/FXa assay % of 0 nM TFPI, 50 nM Ab, 50 nM TFPI [5]: 102%
TF/FVIIa/FXa assay % of 0 nM TFPI, 100 nM Ab, 50 nM TFPI [5]: 110%
TF/FVIIa/FXa assay OD, 12.5 nM Ab, 50 nM TFPI [5]: 0.148 OD
TF/FVIIa/FXa assay OD, 25 nM Ab, 50 nM TFPI [5]: 0.303 OD
TF/FVIIa/FXa assay OD, 50 nM Ab, 50 nM TFPI [5]: 0.816 OD
TF/FVIIa/FXa assay OD, 100 nM Ab, 50 nM TFPI [5]: 0.88 OD
